This data set concerns the molecule itself. Kind of data set: SEC. On the technique in general: SEC sorts molecules by how far they enter the pores of the column.

B1: full-length WT HIV-1 integrase (IN) (enzyme)
chain: FLDGIDKAQEEHEKYHSNWRAMASDFNLPPVVAKEIVASCDKCQLKGEAMHGQVDCSPGIWQLDCTHLEGKVILVAVHVASGYIEAEVIPAETGQETAYFLLKLAGRWPVKTVHTDNGSNFTSTTVKAACWWAGIKQEFGIPYNPQSQGVIESMNKELKKIIGQVRDQAEHLKTAVQMAVFIHNFKRKGGIGGYSAGERIVDIIATDIQTKELQKQITKIQNFRVYYRDSRDPVWKGPAKLLWKGEGAVVIQDNSDIKVVPRRKAKIIRDYGKQMAGDDCVASRQDED
B1: the binding result is reported as “binds”.
